IC50 (read off the curve) data for one substance are collected here from patent US20070032637A1.

The experiment addresses EGFR on A431 cells (human squamous cell carcinoma cells) (human) (UniProt P00533). Description: inhibition of the binding of Eu-EGF (10 nM) to A431 cells, time-resolved fluorescence; blocked ligand: Eu-EGF.

In the case of “anti-EGFR monoclonal antibody Ab-3 (Oncogene)”, the IC50 (read off the curve) amounted to 0.6 µg/mL.
